We go through 26 sequences from the supplement of paper PMC9732359.

± gives the uncertainty stated by the source.

This data set in a line: protein stability index of a GFP-peptide fusion (yeast GPS) (PSI 1-4); higher = more stable; sorted into four equal gates, so the index is relative within each strain. In a few lines: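 Tiled 17-residue yeast protein peptides were fused downstream of GFP in a plasmid that also expresses Cherry, and the pooled library was carried in yeast. Mid-log cultures in leucine-free medium were sorted into four equal gates by GFP/Cherry fluorescence ratio, and plasmids from each gate were PCR-amplified and Illumina-sequenced, with reads assigned to strains by barcodes. The protein stability index for each peptide was each gate's read frequency times its gate number, summed.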

QIGQVPLAPAPINLPPQ [SNF5]: the protein stability index is, setting by setting: (doa10∆) 2.35 ± 0.08; (pdr5∆) 2.47 ± 0.081; (san1∆) 2.4 ± 0.14; (ubr1∆) 2.5 ± 0.079.
The corresponding values for PFSYLIDETMMDKPLNF [SRB5] are 2.88 ± 0.11, 3.09 ± 0.073, 2.83 ± 0.067 and 2.97 ± 0.054.
For FNLNLPPSSFGRSHTRN [REC8], the protein stability index stood at 3.35 ± 0.11 (doa10∆), 2.51 ± 0.1 (pdr5∆), 3.04 ± 0.058 (san1∆) and 3.27 ± 0.19 (ubr1∆).
The corresponding values for RFVMPNQLLAALVAYTP [RRP6] are 1.83 ± 0.041, 1.84 ± 0.045, 1.39 ± 0.07 and 1.71 ± 0.032.
For SEKGFSKEQIHGSIIIL [YCS4], the protein stability index reads like this: (doa10∆) 2.71 ± 0.12; (pdr5∆) 2.37 ± 0.077; (san1∆) 2.76 ± 0.076; (ubr1∆) 2.73 ± 0.087.
For the sequence NENDKIYLLFQSSGKLK [YDL116W/NUP84], the protein stability index (doa10∆) came to 2.43 ± 0.049, the protein stability index (pdr5∆) was 2.5 ± 0.049, the protein stability index (san1∆) was 2.44 ± 0.048 and the protein stability index (ubr1∆) came out at 2.72 ± 0.034.
The corresponding values for MNDVINTEEVNRLEKEQ [LIN1] are 2.99 ± 0.1, 3.31 ± 0.17, 3.27 ± 0.074 and 3.61 ± 0.085.
The corresponding values for AAGKRISHIEKRIESLQ [SMC1] are 3.09 ± 0.099, 3.07 ± 0.096, 2.93 ± 0.073 and 3.08 ± 0.095.
Turning to RASKALIERYYPKLTLD [RPS17A], the protein stability index reads like this: (pdr5∆) 2.51 ± 0.14; (ubr1∆) 2.37 ± 0.25.
With SVDICNNSKSRYPMNLL [ECM29], the protein stability index came out at 1.86 ± 0.1 (doa10∆), 2.35 ± 0.056 (pdr5∆), 2.71 ± 0.077 (san1∆) and 1.31 ± 0.079 (ubr1∆).
The corresponding values for DPQDVFNYNIFMHDPSV [SIR2] are 2.66 ± 0.08, 2.02 ± 0.074, 1.35 ± 0.12 and 2.69 ± 0.089.
Take ETEKFALERNWPIVNSK [RPN12]: the protein stability index worked out at 3.19 ± 0.095 (doa10∆), 3.25 ± 0.12 (pdr5∆), 3.13 ± 0.069 (san1∆) and 3.11 ± 0.086 (ubr1∆).
The corresponding values for VIVLSNISHLLEIASSI [SWI1] are 2.35 ± 0.059, 1.67 ± 0.063, 2.07 ± 0.082 and 1.8 ± 0.041.
The corresponding values for EIEELKSSIQNLNELES [SMC3] are 1.66 ± 0.2, 2.06 ± 0.17, 2.07 ± 0.28 and 2.71 ± 0.21.
As to KIRCFRYISTLTLYLFQ [IRR1], the protein stability index turned out to be 1.69 ± 0.073 (doa10∆), 1.47 ± 0.077 (pdr5∆), 1.64 ± 0.15 (san1∆) and 1.51 ± 0.14 (ubr1∆).
The corresponding values for DVYASKVRLNASEREEL [PRP8] are 1.93 ± 0.062, 2.22 ± 0.061, 2.39 ± 0.072 and 1.78 ± 0.046.
For the sequence NRSVVYFKLDLTSDLVY [RRI2], the protein stability index by setting is: (doa10∆) 1.37 ± 0.14; (pdr5∆) 1.92 ± 0.28; (ubr1∆) 1.39 ± 0.078.
With SDLINKDLVKNNVSFNA [FAS1], the protein stability index was 2.61 ± 0.068 (doa10∆), 2.58 ± 0.074 (pdr5∆), 1.62 ± 0.11 (san1∆) and 2.26 ± 0.053 (ubr1∆).
The corresponding values for IKTQQHILPEVPPVENF [TAF14] are 2.21 ± 0.1, 2.42 ± 0.082, 2.89 ± 0.086 and 2.95 ± 0.073.
In the case of SSIQESLLSLVGHLSIL [ECM29], the protein stability index worked out at 2.01 ± 0.045 (doa10∆), 1.75 ± 0.043 (pdr5∆), 1.83 ± 0.053 (san1∆) and 1.6 ± 0.025 (ubr1∆).
For the sequence GSTLNVSQMVAVVGQQI [RPO31], the protein stability index runs as follows: (doa10∆) 3.15 ± 0.14; (pdr5∆) 2.94 ± 0.1; (san1∆) 2.84 ± 0.16; (ubr1∆) 2.82 ± 0.15.
ASLQQQQQQDLQQQQQV [SNF6]: the protein stability index was 2.66 ± 0.26 (doa10∆), 2.7 ± 0.17 (pdr5∆) and 2.69 ± 0.21 (ubr1∆).
As to FNFGGKSDTVTSASQPF [YOR098C/NUP1], the protein stability index runs as follows: (doa10∆) 2.21 ± 0.056; (pdr5∆) 2.03 ± 0.056; (san1∆) 2.07 ± 0.071; (ubr1∆) 1.93 ± 0.049.
The corresponding values for TPKLQTQLSYLISSSLS [YCS4] are 1.95 ± 0.047, 2.14 ± 0.052, 2 ± 0.08 and 2.09 ± 0.046.
The corresponding values for QGGAMNKKSEQALDISK [SRP72] are 3.07 ± 0.067, 3.12 ± 0.058, 3 ± 0.043 and 3.07 ± 0.063.
The corresponding values for AIMSKSSLEELLLKDQQ [ECM29] are 2.83 ± 0.09, 2.93 ± 0.073, 2.83 ± 0.1 and 2.98 ± 0.05.
